# Target: T1, FcγRIIIa (human, UniProt P08637 17-208)
# T1 construct: extracellular domain; also called 3a; FcγRIIIa extracellular domain
# Assay: SPR (Biacore);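 also: antibody variants captured on an SPR sensor chip, with FcγRIIIa passed over as analyte in HBS-EP+ buffer at 25 °C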
# T1 sequence (P08637 other isoform, or with tags, fused parts or gaps): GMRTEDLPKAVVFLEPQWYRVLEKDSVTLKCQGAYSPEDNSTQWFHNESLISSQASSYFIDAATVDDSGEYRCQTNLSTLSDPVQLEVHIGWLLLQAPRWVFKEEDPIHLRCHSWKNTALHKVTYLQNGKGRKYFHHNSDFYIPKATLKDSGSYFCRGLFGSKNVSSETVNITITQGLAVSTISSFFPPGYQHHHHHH
row,Binder,He/Con 3a
1,"GpH7-A5/GpH7-B3 variant Q295_03V/GpL16-k0 (antibody, human IgG1, kappa, copies: 1 + 1 + 2) heavy 1: not shown heavy 2: not shown light: DIVMTQSPLSLPVTPGEPASISCQASESLVHSNRNTYLHWYLQKPGQSPQLLIYKVSNRFSGVPDRFSGSGSGTDFTLKISRVEAEDVGVYYCSQNTHVPPTFGQGTKVEIERTVAAPSVFIFPPSDEQLKSGTASVVCLLNNFYPREAKVQWKVDNALQSGNSQESVTEQDSKDSTYSLSSTLTLSKADYEKHKVYACEVTHQGLSSPVTKSFNRGEC",86.2 % of GpH7-A5/GpH7-B3/GpL16-k0
2,"GpH7-A5/GpH7-B3 variant Q295_14T/GpL16-k0 (antibody, human IgG1, kappa, copies: 1 + 1 + 2) heavy 1: not shown heavy 2: not shown light: DIVMTQSPLSLPVTPGEPASISCQASESLVHSNRNTYLHWYLQKPGQSPQLLIYKVSNRFSGVPDRFSGSGSGTDFTLKISRVEAEDVGVYYCSQNTHVPPTFGQGTKVEIERTVAAPSVFIFPPSDEQLKSGTASVVCLLNNFYPREAKVQWKVDNALQSGNSQESVTEQDSKDSTYSLSSTLTLSKADYEKHKVYACEVTHQGLSSPVTKSFNRGEC",120 % of GpH7-A5/GpH7-B3/GpL16-k0
3,"GpH7-A5/GpH7-B3 variant Q295_10E/GpL16-k0 (antibody, human IgG1, kappa, copies: 1 + 1 + 2) heavy 1: not shown heavy 2: not shown light: DIVMTQSPLSLPVTPGEPASISCQASESLVHSNRNTYLHWYLQKPGQSPQLLIYKVSNRFSGVPDRFSGSGSGTDFTLKISRVEAEDVGVYYCSQNTHVPPTFGQGTKVEIERTVAAPSVFIFPPSDEQLKSGTASVVCLLNNFYPREAKVQWKVDNALQSGNSQESVTEQDSKDSTYSLSSTLTLSKADYEKHKVYACEVTHQGLSSPVTKSFNRGEC",105 % of GpH7-A5/GpH7-B3/GpL16-k0
4,"GpH7-A5/GpH7-B3 variant Q295_13S/GpL16-k0 (antibody, human IgG1, kappa, copies: 1 + 1 + 2) heavy 1: not shown heavy 2: not shown light: DIVMTQSPLSLPVTPGEPASISCQASESLVHSNRNTYLHWYLQKPGQSPQLLIYKVSNRFSGVPDRFSGSGSGTDFTLKISRVEAEDVGVYYCSQNTHVPPTFGQGTKVEIERTVAAPSVFIFPPSDEQLKSGTASVVCLLNNFYPREAKVQWKVDNALQSGNSQESVTEQDSKDSTYSLSSTLTLSKADYEKHKVYACEVTHQGLSSPVTKSFNRGEC",90.4 % of GpH7-A5/GpH7-B3/GpL16-k0
5,"GpH7-A5/GpH7-B3 variant Q295_11K/GpL16-k0 (antibody, human IgG1, kappa, copies: 1 + 1 + 2) heavy 1: not shown heavy 2: not shown light: DIVMTQSPLSLPVTPGEPASISCQASESLVHSNRNTYLHWYLQKPGQSPQLLIYKVSNRFSGVPDRFSGSGSGTDFTLKISRVEAEDVGVYYCSQNTHVPPTFGQGTKVEIERTVAAPSVFIFPPSDEQLKSGTASVVCLLNNFYPREAKVQWKVDNALQSGNSQESVTEQDSKDSTYSLSSTLTLSKADYEKHKVYACEVTHQGLSSPVTKSFNRGEC",81.8 % of GpH7-A5/GpH7-B3/GpL16-k0
6,"GpH7-A5/GpH7-B3 variant Q295_09D/GpL16-k0 (antibody, human IgG1, kappa, copies: 1 + 1 + 2) heavy 1: not shown heavy 2: not shown light: DIVMTQSPLSLPVTPGEPASISCQASESLVHSNRNTYLHWYLQKPGQSPQLLIYKVSNRFSGVPDRFSGSGSGTDFTLKISRVEAEDVGVYYCSQNTHVPPTFGQGTKVEIERTVAAPSVFIFPPSDEQLKSGTASVVCLLNNFYPREAKVQWKVDNALQSGNSQESVTEQDSKDSTYSLSSTLTLSKADYEKHKVYACEVTHQGLSSPVTKSFNRGEC",85.6 % of GpH7-A5/GpH7-B3/GpL16-k0
7,"GpH7-A5/GpH7-B3 variant Q295_15Y/GpL16-k0 (antibody, human IgG1, kappa, copies: 1 + 1 + 2) heavy 1: not shown heavy 2: not shown light: DIVMTQSPLSLPVTPGEPASISCQASESLVHSNRNTYLHWYLQKPGQSPQLLIYKVSNRFSGVPDRFSGSGSGTDFTLKISRVEAEDVGVYYCSQNTHVPPTFGQGTKVEIERTVAAPSVFIFPPSDEQLKSGTASVVCLLNNFYPREAKVQWKVDNALQSGNSQESVTEQDSKDSTYSLSSTLTLSKADYEKHKVYACEVTHQGLSSPVTKSFNRGEC",81.5 % of GpH7-A5/GpH7-B3/GpL16-k0

# Second part, the binder after the results:
row,He/Con 3a,Binder
1,70.9 % of GpH7-A5/GpH7-B3/GpL16-k0,"GpH7-A5/GpH7-B3 variant S239_02A/GpL16-k0 (antibody, human IgG1, kappa, copies: 1 + 1 + 2) heavy 1: not shown heavy 2: not shown light: DIVMTQSPLSLPVTPGEPASISCQASESLVHSNRNTYLHWYLQKPGQSPQLLIYKVSNRFSGVPDRFSGSGSGTDFTLKISRVEAEDVGVYYCSQNTHVPPTFGQGTKVEIERTVAAPSVFIFPPSDEQLKSGTASVVCLLNNFYPREAKVQWKVDNALQSGNSQESVTEQDSKDSTYSLSSTLTLSKADYEKHKVYACEVTHQGLSSPVTKSFNRGEC"
2,90 % of GpH7-A5/GpH7-B3/GpL16-k0,"GpH7-A5/GpH7-B3 variant S239_08L/GpL16-k0 (antibody, human IgG1, kappa, copies: 1 + 1 + 2) heavy 1: not shown heavy 2: not shown light: DIVMTQSPLSLPVTPGEPASISCQASESLVHSNRNTYLHWYLQKPGQSPQLLIYKVSNRFSGVPDRFSGSGSGTDFTLKISRVEAEDVGVYYCSQNTHVPPTFGQGTKVEIERTVAAPSVFIFPPSDEQLKSGTASVVCLLNNFYPREAKVQWKVDNALQSGNSQESVTEQDSKDSTYSLSSTLTLSKADYEKHKVYACEVTHQGLSSPVTKSFNRGEC"
3,72 % of GpH7-A5/GpH7-B3/GpL16-k0,"GpH7-A5/GpH7-B3 variant S239_01G/GpL16-k0 (antibody, human IgG1, kappa, copies: 1 + 1 + 2) heavy 1: not shown heavy 2: not shown light: DIVMTQSPLSLPVTPGEPASISCQASESLVHSNRNTYLHWYLQKPGQSPQLLIYKVSNRFSGVPDRFSGSGSGTDFTLKISRVEAEDVGVYYCSQNTHVPPTFGQGTKVEIERTVAAPSVFIFPPSDEQLKSGTASVVCLLNNFYPREAKVQWKVDNALQSGNSQESVTEQDSKDSTYSLSSTLTLSKADYEKHKVYACEVTHQGLSSPVTKSFNRGEC"
4,72.4 % of GpH7-A5/GpH7-B3/GpL16-k0,"GpH7-A5/GpH7-B3 variant S239_03V/GpL16-k0 (antibody, human IgG1, kappa, copies: 1 + 1 + 2) heavy 1: not shown heavy 2: not shown light: DIVMTQSPLSLPVTPGEPASISCQASESLVHSNRNTYLHWYLQKPGQSPQLLIYKVSNRFSGVPDRFSGSGSGTDFTLKISRVEAEDVGVYYCSQNTHVPPTFGQGTKVEIERTVAAPSVFIFPPSDEQLKSGTASVVCLLNNFYPREAKVQWKVDNALQSGNSQESVTEQDSKDSTYSLSSTLTLSKADYEKHKVYACEVTHQGLSSPVTKSFNRGEC"
